Measurements published in publication PMC12411348 (2025).

Target: recombinant human pVHL (CUSABIO) (human, UniProt P40337-1 1-213)
Experiment: SPR

Sequence of recombinant human pVHL (CUSABIO) (P40337 whole entry): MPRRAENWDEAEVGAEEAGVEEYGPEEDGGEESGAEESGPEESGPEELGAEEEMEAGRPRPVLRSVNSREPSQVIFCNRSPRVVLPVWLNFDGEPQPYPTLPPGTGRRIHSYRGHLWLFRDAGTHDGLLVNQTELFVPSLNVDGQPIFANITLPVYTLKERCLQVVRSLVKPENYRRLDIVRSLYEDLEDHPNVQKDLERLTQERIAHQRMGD

Kd: 806 nM
B1: recombinant TCF7L2(1–456) (domain or fragment)
chain: MPQLNGGGGDDLGANDELISFKDEGEQEEKSSENSSAERDLADVKSSLVNESETNQNSSSDSEAERRPPPRSESFRDKSRESLEEAAKRQDGGLFKGPPYPGYPFIMIPDLTSPYLPNGSLSPTARTLHFQSGSTHYSAYKTIEHQIAVQYLQMKWPLLDVQAGSLQSRQALKDARSPSPAHIVSNKVPVVQHPHHVHPLTPLITYSNEHFTPGNPPPHLPADVDPKTGIPRPPHPPDISPYYPLSPGTVGQIPHPLGWLVPQQGQPVYPITTGGFRHPYPTALTVNASMSRFPPHMVPPHHTLHTTGIPHPAIVTPTVKQESSQSDVGSLHSSKHQDSKKEEEKKKPHIKKPLNAFMLYMKEMRAKVVAECTLKESAAINQILGRRWHALSREEQAKYYELARKERQLHMQLYPGWSARDNYGKKKKRKRDKQPGETNEHSECFLNPCLSLPPIT
